Results: patent US20240109954A1 (GENERAL HOSPITAL, published 2024)
Substitutions are numbered along the chain they refer to.

Tests used:
Experiment in all cases: SPR (IBIS MX96): mAb printed on the chip, recombinant FcγR injected at 10 to 0.005 µM; axis 'KD, M^-1', that is the reciprocal of KD
[1] = biological target: T1, mouse FcγRIV (mouse, UniProt A0A0B4J1G0 21-203)
T1 construct: also called mFcγRIV
T1 sequence: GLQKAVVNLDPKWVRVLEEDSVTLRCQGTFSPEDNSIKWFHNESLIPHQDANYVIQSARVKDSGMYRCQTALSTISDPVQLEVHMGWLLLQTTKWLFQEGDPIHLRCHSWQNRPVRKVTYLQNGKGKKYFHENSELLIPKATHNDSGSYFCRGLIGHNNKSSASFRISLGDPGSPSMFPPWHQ

[2] = biological target: T2, mouse FcγRIIb (mouse, UniProt P08101 30-210)
T2 construct: also called mFcγRIIb; mFcγR2b
T2 sequence: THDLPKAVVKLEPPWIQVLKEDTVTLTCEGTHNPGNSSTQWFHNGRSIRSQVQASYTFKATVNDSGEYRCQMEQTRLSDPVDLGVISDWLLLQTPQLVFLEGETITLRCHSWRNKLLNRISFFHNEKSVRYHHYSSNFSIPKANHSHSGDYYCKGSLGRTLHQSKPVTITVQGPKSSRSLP

[3] = biological target: T3, human FcγR3B (human, UniProt O75015 17-200)
T3 construct: also called huFcγR3B
T3 sequence (O75015 17-200): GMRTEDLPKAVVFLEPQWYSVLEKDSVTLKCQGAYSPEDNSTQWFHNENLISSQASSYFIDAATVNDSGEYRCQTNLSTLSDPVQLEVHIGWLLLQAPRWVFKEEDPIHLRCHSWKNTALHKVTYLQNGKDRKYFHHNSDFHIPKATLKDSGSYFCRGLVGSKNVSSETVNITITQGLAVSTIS

B1: VIC16-DVNH (antibody)
heavy: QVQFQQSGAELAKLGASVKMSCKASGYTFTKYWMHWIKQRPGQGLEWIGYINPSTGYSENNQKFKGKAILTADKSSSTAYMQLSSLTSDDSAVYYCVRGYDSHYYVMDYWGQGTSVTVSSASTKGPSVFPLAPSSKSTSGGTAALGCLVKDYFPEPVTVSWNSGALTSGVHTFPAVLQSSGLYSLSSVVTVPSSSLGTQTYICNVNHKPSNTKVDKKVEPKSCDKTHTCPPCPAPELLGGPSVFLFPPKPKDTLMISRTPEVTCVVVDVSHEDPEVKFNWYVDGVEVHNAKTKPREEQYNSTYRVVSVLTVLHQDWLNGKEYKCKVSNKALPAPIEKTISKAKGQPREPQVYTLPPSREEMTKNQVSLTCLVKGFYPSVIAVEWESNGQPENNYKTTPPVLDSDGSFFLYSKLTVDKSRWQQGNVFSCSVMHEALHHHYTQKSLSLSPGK
light: DIVITQDTASLAVSRGQRATISCRASESVEYYGTTLMQWYQQRPGQPPKLLIYGASNVESGVPARFSGSGSGTDFSLNIHPVEEDDIAMYFCQQSRKVPYTFGGGTKLEIKRTVAAPSVFIFPPSDEQLKSGTASVVCLLNNFYPREAKVQWKVDNALQSGNSQESVTEQDSKDSTYSLSSTLTLSKADYEKHKVYACEVTHQGLSSPVTKSFNRGEC
binding result [1]: binds

B2: VIC16-SAEAKA (antibody)
heavy: QVQFQQSGAELAKLGASVKMSCKASGYTFTKYWMHWIKQRPGQGLEWIGYINPSTGYSENNQKFKGKAILTADKSSSTAYMQLSSLTSDDSAVYYCVRGYDSHYYVMDYWGQGTSVTVSSASTKGPSVFPLAPSSKSTSGGTAALGCLVKDYFPEPVTVSWNSGALTSGVHTFPAVLQSSGLYSLSSVVTVPSSSLGTQTYICNVNHKPSNTKVDKKVEPKSCDKTHTCPPCPAPELLGGPSVFLFPPKPKDTLMISRTPEVTCVVVDVSHEDPEVKFNWYVDGVEVHNAKTKPREEQYNATYRVVSVLTVLHQDWLNGKEYKCKVSNKALPAPIAATISKAKGQPREPQVYTLPPSREEMTKNQVSLTCLVKGFYPSDIAVEWESNGQPENNYKTTPPVLDSDGSFFLYSKLTVDKSRWQQGNVFSCSVMHEALHNHYTQKSLSLSPGK
light: B1 light
binding result [2]: binds | binding result [1]: binds

B3: VIC16-MLNS (antibody)
heavy: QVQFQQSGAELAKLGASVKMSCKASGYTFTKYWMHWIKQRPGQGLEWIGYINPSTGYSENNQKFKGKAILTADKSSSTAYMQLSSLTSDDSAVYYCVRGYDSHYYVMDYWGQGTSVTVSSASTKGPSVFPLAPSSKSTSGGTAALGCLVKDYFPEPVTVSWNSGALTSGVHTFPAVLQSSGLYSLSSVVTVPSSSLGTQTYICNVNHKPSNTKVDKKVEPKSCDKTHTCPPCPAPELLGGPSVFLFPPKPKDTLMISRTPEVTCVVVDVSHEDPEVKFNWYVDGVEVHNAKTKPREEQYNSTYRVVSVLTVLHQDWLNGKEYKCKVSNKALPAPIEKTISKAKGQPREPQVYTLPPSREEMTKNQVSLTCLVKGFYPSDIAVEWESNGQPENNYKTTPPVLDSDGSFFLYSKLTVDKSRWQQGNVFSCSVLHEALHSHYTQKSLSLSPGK
light: B1 light
binding result [1]: binds

B4: VIC16-SAEAKA-LS (antibody)
heavy: B2 heavy with M431L, N437S
light: B1 light
binding result [2]: binds | binding result [3]: binds | binding result [1]: binds

B5: VIC16-EANA (antibody)
heavy: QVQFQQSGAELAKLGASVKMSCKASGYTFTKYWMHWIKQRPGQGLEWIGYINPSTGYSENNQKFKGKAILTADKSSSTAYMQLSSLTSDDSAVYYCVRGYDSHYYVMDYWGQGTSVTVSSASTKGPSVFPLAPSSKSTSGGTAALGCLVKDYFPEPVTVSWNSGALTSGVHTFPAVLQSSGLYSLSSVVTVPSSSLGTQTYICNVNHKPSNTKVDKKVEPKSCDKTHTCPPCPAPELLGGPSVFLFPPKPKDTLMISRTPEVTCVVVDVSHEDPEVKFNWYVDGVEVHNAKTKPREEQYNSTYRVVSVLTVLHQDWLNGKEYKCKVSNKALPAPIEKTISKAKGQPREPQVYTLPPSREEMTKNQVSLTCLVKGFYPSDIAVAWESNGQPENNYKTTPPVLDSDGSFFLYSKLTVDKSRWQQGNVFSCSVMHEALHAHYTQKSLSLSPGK
light: B1 light
binding result [2]: binds

B6: VIC16-SDIESA-LS (antibody)
heavy: B2 heavy with S242D, I335E, A336E, A337K, M431L, N437S
light: B1 light
binding result [3]: binds | binding result [1]: binds
